Results published in patent publication US20200353049A1.
Values joined by “and” are separate entries in the source; they are usually repeats but may differ in a detail not shown here. Equal values may be shown once.

What was measured:
[1] = target: IL-22R1a extracellular domain (ECD) (UniProt Q8N6P7); assay: binding ELISA on plate-coated IL-22R1a ECD, relative to Reference Standard (100%); stored 5 C, 3 months
[2] = target: IL-22R1a extracellular domain (ECD) (UniProt Q8N6P7); assay: potency assay (binding ELISA on plate-coated IL-22R1a ECD), relative to reference standard (100%); stored 5 C, 48 months
[3] = target: IL-22R1a extracellular domain (ECD) (UniProt Q8N6P7); assay: binding ELISA on plate-coated IL-22R1a ECD, relative to Reference Standard (100%); stored 5 C, 6 months
[4] = target: IL-22R1a extracellular domain (ECD) (UniProt Q8N6P7); assay: potency assay (binding ELISA on plate-coated IL-22R1a ECD); change after 2 weeks at 40 C; this end matches Reference Standard Batch in Table 26 (104 to 71)
[5] = target: IL-22R1a extracellular domain (ECD) (UniProt Q8N6P7); assay: potency assay (binding ELISA on plate-coated IL-22R1a ECD), relative to reference standard (100%); stored 5 C, 18 months
[6] = target: IL-22R1a extracellular domain (ECD) (UniProt Q8N6P7); assay: potency assay (binding ELISA on plate-coated IL-22R1a ECD), relative to reference standard (100%); T=0
[7] = target: IL-22R1a extracellular domain (ECD) (UniProt Q8N6P7); assay: potency assay (binding ELISA on plate-coated IL-22R1a ECD); change after 6 months at 25 C (supportive stability study)
[8] = target: IL-22R1a extracellular domain (ECD) (UniProt Q8N6P7); assay: potency assay (binding ELISA on plate-coated IL-22R1a ECD), relative to reference standard (100%); T=0; remark: listed apart in the source
[9] = target: IL-22R1a extracellular domain (ECD) (UniProt Q8N6P7); assay: binding ELISA on plate-coated IL-22R1a ECD, relative to Reference Standard (100%); stored -20 C, 36 months
[10] = target: IL-22R1a extracellular domain (ECD) (UniProt Q8N6P7); assay: binding ELISA on plate-coated IL-22R1a ECD, relative to Reference Standard (100%); stored -20 C, 30 months
[11] = target: IL-22R1a extracellular domain (ECD) (UniProt Q8N6P7); assay: binding ELISA on plate-coated IL-22R1a ECD, relative to Reference Standard (100%); stored -20 C, 48 months
[12] = target: IL-22R1a extracellular domain (ECD) (UniProt Q8N6P7); assay: potency assay (binding ELISA on plate-coated IL-22R1a ECD), relative to reference standard; 40 C stress, day 10
[13] = target: IL-22R1a extracellular domain (ECD) (UniProt Q8N6P7); assay: binding ELISA on plate-coated IL-22R1a ECD, relative to Reference Standard (100%); stored -20 C, 24 months
[14] = target: IL-22R1a extracellular domain (ECD) (UniProt Q8N6P7); assay: potency assay (binding ELISA on plate-coated IL-22R1a ECD), relative to reference standard (100%); stored 5 C, 6 months
[15] = target: IL-22R1a extracellular domain (ECD) (UniProt Q8N6P7); assay: binding ELISA on plate-coated IL-22R1a ECD, relative to Reference Standard (100%); stored -20 C, 36 months; remark: listed apart in the source
[16] = target: IL-22R1a extracellular domain (ECD) (UniProt Q8N6P7); assay: potency assay (binding ELISA on plate-coated IL-22R1a ECD), relative to reference standard (100%); stored 5 C, 12 months
[17] = target: IL-22R1a extracellular domain (ECD) (UniProt Q8N6P7); assay: potency assay (binding ELISA on plate-coated IL-22R1a ECD), relative to reference standard (100%); stored 5 C, 3 months
[18] = target: IL-22R1a extracellular domain (ECD) (UniProt Q8N6P7); assay: potency assay (binding ELISA on plate-coated IL-22R1a ECD), relative to reference standard (100%); stored 25 C, 2 months
[19] = target: IL-22R1a extracellular domain (ECD) (UniProt Q8N6P7); assay: binding ELISA on plate-coated IL-22R1a ECD, relative to Reference Standard (100%); stored 5 C, 1 month
[20] = target: IL-22R1a extracellular domain (ECD) (UniProt Q8N6P7); assay: binding ELISA on plate-coated IL-22R1a ECD, relative to Reference Standard (100%); stored -20 C, 18 months
[21] = target: IL-22R1a extracellular domain (ECD) (UniProt Q8N6P7); assay: as above; remark: listed apart in the source
[22] = target: IL-22R1a extracellular domain (ECD) (UniProt Q8N6P7); assay: potency assay (binding ELISA on plate-coated IL-22R1a ECD), relative to reference standard (100%); stored 25 C, 6 months
[23] = target: IL-22R1a extracellular domain (ECD) (UniProt Q8N6P7); assay: potency assay (binding ELISA on plate-coated IL-22R1a ECD), relative to reference standard (100%); stored 5 C, 30 months
[24] = target: IL-22R1a extracellular domain (ECD) (UniProt Q8N6P7); assay: potency assay (binding ELISA on plate-coated IL-22R1a ECD), relative to reference standard (100%); stored 5 C, 18 months; remark: listed apart in the source
[25] = target: IL-22R1a extracellular domain (ECD) (UniProt Q8N6P7); assay: binding ELISA on plate-coated IL-22R1a ECD, relative to Reference Standard (100%); stored -20 C, 9 months
[26] = target: IL-22R1a extracellular domain (ECD) (UniProt Q8N6P7); assay: potency assay (binding ELISA on plate-coated IL-22R1a ECD), relative to reference standard; 40 C stress, day 5
[27] = target: IL-22R1a extracellular domain (ECD) (UniProt Q8N6P7); assay: potency assay (binding ELISA on plate-coated IL-22R1a ECD), relative to reference standard (100%); stored 25 C, 6 months; remark: listed apart in the source
[28] = target: IL-22R1a extracellular domain (ECD) (UniProt Q8N6P7); assay: binding ELISA on plate-coated IL-22R1a ECD, relative to Reference Standard (100%); stored -20 C, 48 months; remark: listed apart in the source

Chain of UniProt Q8N6P7 (Q8N6P7 16-228 limits assumed): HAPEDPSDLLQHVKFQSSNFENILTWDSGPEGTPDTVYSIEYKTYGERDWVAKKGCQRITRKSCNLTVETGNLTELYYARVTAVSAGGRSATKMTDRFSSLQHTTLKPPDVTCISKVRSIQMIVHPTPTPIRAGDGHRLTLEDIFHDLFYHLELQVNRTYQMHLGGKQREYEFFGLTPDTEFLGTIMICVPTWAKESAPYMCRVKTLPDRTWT

Potency by Binding Assay (% relative potency) (% relative potency) [1]: 73
Potency (% relative potency) (% relative potency) [2]: 65
Potency by Binding Assay (% relative potency) (% relative potency) [3]: 98
decrease in % relative potency (% relative potency) [4]: 33
Potency (% relative potency) (% relative potency) [5]: 64
Potency (% relative potency) (% relative potency) [6]: 101
loss of % relative potency (% relative potency) [7]: 29
Potency (% relative potency) (% relative potency) [8]: 73
Potency by Binding Assay (% relative potency) (% relative potency) [9]: 71
Potency by Binding Assay (% relative potency) (% relative potency) [10]: 70
Potency by Binding Assay (% relative potency) (% relative potency) [11]: 93
Potency (% relative potency) (% relative potency) [12]: 84 and 65
Potency by Binding Assay (% relative potency) (% relative potency) [13]: 70
Potency (% relative potency) (% relative potency) [14]: 100
Potency by Binding Assay (% relative potency) (% relative potency) [15]: 107
Potency (% relative potency) (% relative potency) [16]: 67
Potency (% relative potency) (% relative potency) [17]: 73
Potency (% relative potency) (% relative potency) [18]: 60
Potency by Binding Assay (% relative potency) (% relative potency) [19]: 73
Potency by Binding Assay (% relative potency) (% relative potency) [20]: 70
Potency by Binding Assay (% relative potency) (% relative potency) [21]: 101
Potency (% relative potency) (% relative potency) [22]: 72
Potency (% relative potency) (% relative potency) [23]: 65
Potency (% relative potency) (% relative potency) [24]: 93
Potency by Binding Assay (% relative potency) (% relative potency) [25]: 68
Potency (% relative potency) (% relative potency) [26]: 80
Potency (% relative potency) (% relative potency) [27]: 47
Potency by Binding Assay (% relative potency) (% relative potency) [28]: 72
Substance: IL-22 Fc fusion protein
